Laboratory results taken from PMC8168904, “The Trypanosoma brucei subpellicular microtubule array is organized into functionally discrete subdomains defined by microtubule associated proteins” (PLoS Pathogens, 2021).

B1: PAVE2 (Tb927.9.11540), endogenous (natural protein, T. brucei (endogenous in 427 cells), UniProt Q38DN4 1-438, looked up)
chain: MADVSADSDAQVELERLNDVIDKYTCQVEHIDNLLQELEEENNSDSVSRQIAEYQSALESHPENIPAEDALEVITRLENTLKIVQRRNHLLEKENGTQNRLLEERSNVLLNATKTFDHIVDVTGWHDKFLFDAEDLRSKVADIREMSNIEAVVQKELRVAQGIIKKKEAALRQLEELVEQGKEQEAVLNNVYNDIRVKERDCSEVEMQLVRLRKSVAKTDEALAVFDLHNQNASLAYMESDRDYLRDSVAEMKSTTRRQDNVIKAQLTRQQQLQTRLDVIMKSLREMKLDKKYERNIPKSALVPSASREEPEDVSKILPESECIPVPTYRLLHKNNEMLRVIVMRKNMLVLEKNAVIEALEAGLAKYGSALITTYKEQQDLRQNKDMELIELMDDLQQQHSNYLEKLEELRLQNAALKKKMYRSTRQHAPLKGTRPMR
notes: PAVE2, Trypanosoma brucei, TriTrypDB Tb927.9.11540, predicted MW 51 kDa; also called uncharacterized protein Tb927.9.11540; source: endogenous, T. brucei 427 lysate (mNeonGreen-PAVE1 cells)

Experiments:
[1] = target: Taxol-stabilized bovine microtubules labeled with Cy5 (bovine) (UniProt Q6B856); experiment: not stated; (the row names no known assay)
[2] = target: T1, mNeonGreen-PAVE1 (Posterior And Ventral Edge protein 1), tagged at both endogenous alleles (T. brucei (endogenous locus, 427 strain), UniProt Q581X9 1-421); experiment: affinity purification with mass spectrometry; mNeonGreen-PAVE1 captured from sonicated, clarified T. brucei lysate on magnetic mNeonGreen-Trap nanobody beads, 1 hr 4°C, 6 washes; on-bead tryptic digest and LC-MS/MS, and silver-stained SDS-PAGE of the eluate; WT 427 cells as control; conditions: partners not purified
T1 construct: PAVE1, Trypanosoma brucei, TriTrypDB Tb927.8.2030; expressed from the endogenous locus with an N-terminal tag; also called mNG-PAVE1; dET-mNeonGreen-PAVE1; source: endogenously tagged at both alleles, T. brucei 427 procyclic cells, in sonicated and clarified lysate; not shown: mNeonGreen, N-terminal, kept
T1 sequence (looked up): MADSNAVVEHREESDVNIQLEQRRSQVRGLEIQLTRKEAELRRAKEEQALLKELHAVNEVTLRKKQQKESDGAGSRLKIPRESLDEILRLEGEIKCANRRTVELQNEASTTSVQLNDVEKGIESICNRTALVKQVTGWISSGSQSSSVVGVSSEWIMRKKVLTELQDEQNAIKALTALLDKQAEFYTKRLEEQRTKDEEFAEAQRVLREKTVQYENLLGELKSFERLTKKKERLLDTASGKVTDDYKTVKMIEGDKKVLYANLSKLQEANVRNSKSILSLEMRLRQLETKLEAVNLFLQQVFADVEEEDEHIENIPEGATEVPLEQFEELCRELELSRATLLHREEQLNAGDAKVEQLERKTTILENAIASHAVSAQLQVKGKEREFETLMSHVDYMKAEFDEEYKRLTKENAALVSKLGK

| Molecule | time that pre-seeded patches remained after wash-out [1] [min] | stoichiometry N [2] |
| --- | --- | --- |
| PAVE complex (mNeonGreen-PAVE1 with Strep-PAVE2) | > 20 | – |
| B1 | – | ~1 |
